Data on four molecules can be found in publication PMC11014249.

For orientation: stoichiometry N means a count of units in the complex or per binding partner.

Data set [1] concerns the target RccR from Pseudomonas aeruginosa (P. aeruginosa). Briefly: SEC. For orientation: Size exclusion chromatography separates by hydrodynamic size, large species first.
Data set [2] addresses T1, RccR E200A (Pseudomonas aeruginosa, UniProt A0A071KWR3 1-293, E200A).
T1 sequence: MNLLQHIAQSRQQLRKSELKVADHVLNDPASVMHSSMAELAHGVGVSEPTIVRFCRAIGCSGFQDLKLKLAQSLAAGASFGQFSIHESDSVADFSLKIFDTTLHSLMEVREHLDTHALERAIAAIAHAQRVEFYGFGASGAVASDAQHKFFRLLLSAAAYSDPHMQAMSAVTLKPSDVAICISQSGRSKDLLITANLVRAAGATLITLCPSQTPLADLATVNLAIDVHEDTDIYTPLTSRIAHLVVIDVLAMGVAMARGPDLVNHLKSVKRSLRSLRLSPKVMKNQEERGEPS
Briefly: EMSA. In general terms: Mobility shift assays separate free from complexed probe on a gel.

Data set [3] has as its target T1, RccR E200A. Briefly: EMSA. This is another data set of the same source.
For data set [4], the target named is T2, RccR H164A (Pseudomonas aeruginosa, UniProt A0A071KWR3 1-293, H164A).
T2 sequence: T1 sequence with H164A, A200E
Briefly: EMSA.

For data set [5], the target named is T3, RccR T231A (Pseudomonas aeruginosa, UniProt A0A071KWR3 1-293, T231A).
T3 sequence: T1 sequence with A200E, T231A
Briefly: EMSA.

The target of data set [6] is T4, RccR R152A (Pseudomonas aeruginosa, UniProt A0A071KWR3 1-293, R152A).
T4 sequence: T1 sequence with R152A, A200E
Description: EMSA.

Data set [7] has as its target T5, RccR H148A (Pseudomonas aeruginosa, UniProt A0A071KWR3 1-293, H148A).
T5 sequence: T1 sequence with H148A, A200E
Briefly: EMSA.

In data set [8] the target is T6, RccR ΔSLR (Pseudomonas aeruginosa, UniProt A0A071KWR3 1-274+278-293, internal_change).
T6 sequence: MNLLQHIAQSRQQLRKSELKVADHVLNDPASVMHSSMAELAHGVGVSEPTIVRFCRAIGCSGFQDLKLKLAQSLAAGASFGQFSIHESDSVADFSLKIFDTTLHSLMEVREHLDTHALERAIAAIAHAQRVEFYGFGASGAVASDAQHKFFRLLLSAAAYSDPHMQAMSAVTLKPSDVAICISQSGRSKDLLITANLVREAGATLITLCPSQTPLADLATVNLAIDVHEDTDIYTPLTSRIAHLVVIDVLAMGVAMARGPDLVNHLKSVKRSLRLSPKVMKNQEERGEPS
Description: EMSA.

Data set [9] deals with T7, RccR K270A (Pseudomonas aeruginosa, UniProt A0A071KWR3 1-293, K270A).
T7 sequence: T1 sequence with A200E, K270A
Briefly: EMSA.

The target in data set [10] is T8, RccR SSSS (Pseudomonas aeruginosa, UniProt A0A071KWR3 1-293, S139A;S183A;S185A;S188A).
T8 sequence: T1 sequence with S139A, S183A, S185A, S188A, A200E
Briefly: EMSA.

Data set [11] concerns the target T9, RccR (PaRccR) (Pseudomonas aeruginosa, UniProt A0A071KWR3 1-293).
T9 sequence: T1 sequence with A200E
Briefly: EMSA.

Residue numbers refer to the chain shown, from its start. Read-outs that look alike come from different tables or passages of the source.

In data set [1], “RccR from Pseudomonas aeruginosa (natural protein)” returned a stoichiometry N of 4.

B1: PaceA (dsDNA)
DNA 1: TCGTGTAGTAGTCTTGAAAAAACACTACAAAA
DNA 2: TTTTGTAGTGTTTTTTCAAGACTACTACACGA
On to B1, for which the binding result in data set [2] was “binds”.

B2: PaceE (dsDNA)
DNA 1: ATCTGTAGTAAAACTACAAG
DNA 2: CTTGTAGTTTTACTACAGAT
As for B2, the binding result in [3], in data set [4], in data set [5], in data set [6], in data set [7] and in data set [8] was “binds” throughout. Moreover, the binding result in [9] and in [10] was “binds” each time.

B3: Variant1 (dsDNA)
DNA 1: ATCTGTAGTGGGACTACAAG
DNA 2: CTTGTAGTCCCACTACAGAT
As to B3, in data set [11], the binding result is “binds”.
